Paper PMC12866951 (Cell, 2026)
Each block holds one binder with its values, some of them ahead of it.

Tests used:
[1] = target: T1, S.c. Rad27 (Fen1) flap endonuclease with a 6xHis tag at the C-terminus (S. cerevisiae, UniProt P26793 1-382); test: mass photometry
T1 sequence (looked up): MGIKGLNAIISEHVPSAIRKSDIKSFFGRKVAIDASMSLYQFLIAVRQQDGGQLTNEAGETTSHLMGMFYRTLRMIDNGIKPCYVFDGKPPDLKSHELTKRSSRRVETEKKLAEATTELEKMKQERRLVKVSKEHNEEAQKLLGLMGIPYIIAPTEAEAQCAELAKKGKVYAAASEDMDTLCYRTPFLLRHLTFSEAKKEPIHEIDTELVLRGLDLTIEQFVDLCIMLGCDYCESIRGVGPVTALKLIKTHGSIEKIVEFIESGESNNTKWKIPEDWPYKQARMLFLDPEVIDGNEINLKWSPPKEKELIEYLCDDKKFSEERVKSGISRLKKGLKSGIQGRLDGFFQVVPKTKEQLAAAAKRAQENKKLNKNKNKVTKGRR

[2] = target: T1, S.c. Rad27 (Fen1) flap endonuclease …; test: single-molecule colocalisation on DNA

binding result [1]: binds
B1: PCNA (as used in mass photometry; tag and label not stated) (natural protein, S. cerevisiae, UniProt P15873 1-258, looked up)
chain: MLEAKFEEASLFKRIIDGFKDCVQLVNFQCKEDGIIAQAVDDSRVLLVSLEIGVEAFQEYRCDHPVTLGMDLTSLSKILRCGNNTDTLTLIADNTPDSIILLFEDTKKDRIAEYSLKLMDIDADFLKIEELQYDSTLSLPSSEFSKIVRDLSQLSDSINIMITKETIKFVADGDIGSGSVIIKPFVDMEHPETSIKLEMDQPVDLTFGAKYLLDIIKGSSLSDRVGIRLSSEAPALFQFDLKSGFLQFFLAPKFNDEE

binding result [2]: binds
B2: LD655-PCNA (S. cerevisiae 3X FLAG-S6-tagged PCNA labeled with LD655) (natural protein, UniProt P15873 1-258, looked up)
chain: B1 chain
modifications: LD655 (from LD655-CoA, by SFP synthase) on the single serine residue of the S6 tag
